Laboratory results from publication PMC10397247.

Tests used:
Test in all cases: two-hybrid library CCmax;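 further: natural log of median RNA to DNA barcode read ratio; higher means stronger binding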
4H2143-AA = target: T1, 4H2143-AA
T1 chain: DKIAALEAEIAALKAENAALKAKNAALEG

4H2148-AA = target: T2, 4H2148-AA; details: mean of both orientations
T2 chain: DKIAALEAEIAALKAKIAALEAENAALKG

4H2290-AA = target: T3, 4H2290-AA; details: mean of both orientations
T3 chain: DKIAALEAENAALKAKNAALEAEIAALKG

4H2447-AA = target: T4, 4H2447-AA; details: mean of both orientations
T4 chain: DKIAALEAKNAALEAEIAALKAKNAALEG

4H2458-AA = target: T5, 4H2458-AA; details: mean of both orientations
T5 chain: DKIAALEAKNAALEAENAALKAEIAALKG

4H3330-AA = target: T6, 4H3330-AA; details: mean of both orientations
T6 chain: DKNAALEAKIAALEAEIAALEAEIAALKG

4H716-AA = target: T7, 4H716-AA; details: mean of both orientations
T7 chain: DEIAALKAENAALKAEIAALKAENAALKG

4H733-AA = target: T8, 4H733-AA; details: mean of both orientations
T8 chain: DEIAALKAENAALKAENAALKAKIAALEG

4H807-AA = target: T9, 4H807-AA; details: mean of both orientations
T9 chain: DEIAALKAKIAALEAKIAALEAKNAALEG

APC1015-AA = target: T10, APC1015-AA; details: mean of both orientations
T10 chain: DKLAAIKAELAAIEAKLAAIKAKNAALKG

APC1434-AA = target: T11, APC1434-AA; details: mean of both orientations
T11 chain: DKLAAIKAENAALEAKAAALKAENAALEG

APC2237-AA = target: T12, APC2237-AA; details: mean of both orientations
T12 chain: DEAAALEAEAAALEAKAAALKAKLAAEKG

APC232-AA = target: T13, APC232-AA; details: mean of both orientations
T13 chain: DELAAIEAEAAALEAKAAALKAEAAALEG

APC2405-AA = target: T14, APC2405-AA; details: mean of both orientations
T14 chain: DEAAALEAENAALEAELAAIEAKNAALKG

APC3645-AA = target: T15, APC3645-AA; details: mean of both orientations
T15 chain: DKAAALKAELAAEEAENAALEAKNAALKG

APC4011-AA = target: T16, APC4011-AA; details: mean of both orientations
T16 chain: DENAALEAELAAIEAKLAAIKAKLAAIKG

APC4264-AA = target: T17, APC4264-AA; details: mean of both orientations
T17 chain: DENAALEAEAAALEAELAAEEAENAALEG

APC4436-AA = target: T18, APC4436-AA; details: mean of both orientations
T18 chain: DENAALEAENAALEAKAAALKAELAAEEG

APC5383-AA = target: T19, APC5383-AA; details: mean of both orientations
T19 chain: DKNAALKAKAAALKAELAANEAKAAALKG

APC6108-AA = target: T20, APC6108-AA; details: mean of both orientations
T20 chain: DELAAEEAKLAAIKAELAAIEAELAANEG

APC7099-AA = target: T21, APC7099-AA; details: mean of both orientations
T21 chain: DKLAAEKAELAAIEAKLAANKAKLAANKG

APC8191-AA = target: T22, APC8191-AA; details: mean of both orientations
T22 chain: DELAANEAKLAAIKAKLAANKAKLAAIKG

APC8910-AA = target: T23, APC8910-AA; details: mean of both orientations
T23 chain: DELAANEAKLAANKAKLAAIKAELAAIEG

APC9096-AA = target: T24, APC9096-AA; details: mean of both orientations
T24 chain: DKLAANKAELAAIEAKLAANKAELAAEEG

APC9319-AA = target: T25, APC9319-AA; details: mean of both orientations
T25 chain: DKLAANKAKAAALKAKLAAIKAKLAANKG

DKIAALEAEIAALKAENAALKAKNAALEG [4H2143-AA]
interaction score (4H2143-AA): 2.12 | interaction score (4H2148-AA): -1.43 | interaction score (4H2290-AA): -1.42 | interaction score (4H2447-AA): -1.64 | interaction score (4H2458-AA): -1.32 | interaction score (4H3330-AA): -0.836 | interaction score (4H716-AA): -1.59 | interaction score (4H733-AA): -1.41 | interaction score (4H807-AA): -1.57 | interaction score (APC1015-AA): -1.78 | interaction score (APC1434-AA): -1.23 | interaction score (APC2237-AA): -1.56 | interaction score (APC232-AA): -2.06 | interaction score (APC2405-AA): -1.48 | interaction score (APC3645-AA): -1.25 | interaction score (APC4011-AA): -0.0916 | interaction score (APC4264-AA): -1.81 | interaction score (APC4436-AA): -1.85 | interaction score (APC5383-AA): -1.98 | interaction score (APC6108-AA): -1.49 | interaction score (APC7099-AA): -1.51 | interaction score (APC8191-AA): -1.3 | interaction score (APC8910-AA): -1.84 | interaction score (APC9096-AA): -1.82 | interaction score (APC9319-AA): -1.6
